In data set [1] the target is ZFP 20 QSNR3-QSHR2-RSNR (synthetic). The experiment in a line: cell_activity; HEK293 luciferase repression. The note with it: tags: HA tag and NLS (P3 vector). The procedure: (§1) The in vivo activity assay for a particular three-finger protein was carried out as follows. HEK 293 cells were transfected with four plasmids: 14 ng of a plasmid expressing the particular three-finger protein; 14 ng of the reporter plasmid described above; 70 ng of a plasmid that expresses GAL4-VP 16; and 1.4 ng of a plasmid that expresses Renillar luciferase. The GAL4-VP 16 activates transcription of the minimal synthetic promoter in the reporter so that the repression effected by a particular three-finger protein could be clearly detected and compared to other three-finger proteins. The plasmid expressing Renillar luciferase provides a control of transfection efficiency.
Sequence of ZFP 20 QSNR3-QSHR2-RSNR (synthetic) (chain, as listed by the source): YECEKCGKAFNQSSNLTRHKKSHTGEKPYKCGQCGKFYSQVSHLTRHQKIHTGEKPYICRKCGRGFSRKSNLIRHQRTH
(§2) Lipofectamine (Gibco-BRL) was used for the transfection procedures. Cells were transfected at 30-50% confluency in wells of a 96 well plate. The cells were incubated for two days prior to harvesting for the luciferase assay. Then luciferase activities were measured using the Dual-Luciferase™ Reporter Assay System (Promega). The observed firefly luciferase activity was normalized using the observed level of Renilla luciferase. The extent of repression or “fold-repression” was calculated by dividing a value for normalized reporter expression in the absence of a zinc finger protein by a value for normalized reporter expression in the presence of the zinc finger protein.
(§3) A total of 153 three-finger chimeric proteins were constructed from both the “zinc finger protein-first” and the “target site-first” approaches. These proteins were tested using the transient cotransfection assay described in Example 68.

The target in data set [2] is ZFP 22 RSNR-VSSR-RSHR (synthetic). The experiment in a line: cell_activity; HEK293 luciferase repression. The note with it: tags: HA tag and NLS (P3 vector). As for the experimental part: as §1, §2, §3
Sequence of ZFP 22 RSNR-VSSR-RSHR (synthetic) (chain, as listed by the source): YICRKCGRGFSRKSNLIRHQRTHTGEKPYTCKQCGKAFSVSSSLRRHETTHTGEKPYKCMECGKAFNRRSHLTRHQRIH
Data set [3] concerns the target ZFP 29 QSNR3-RDHT-RSNR (synthetic). The experiment in a line: cell_activity; HEK293 luciferase repression. The settings on record: tags: HA tag and NLS (P3 vector). The procedure: as §1, §2, §3
The target in data set [4] is ZFP 28 VSSR-QSNR3-RDER1 (synthetic). The experiment in a line: cell_activity; HEK293 luciferase repression. The note with it: tags: HA tag and NLS (P3 vector). As for the experimental part:
as §1, §2, §3

The target in data set [5] is ZFP 7 RDHT-QSNV2-RSHR (synthetic). The experiment in a line: cell_activity; HEK293 luciferase repression. The settings on record: tags: HA tag and NLS (P3 vector). As for the experimental part: as §1, §2, §3
Sequence of ZFP 7 RDHT-QSNV2-RSHR (synthetic) (chain, as listed by the source): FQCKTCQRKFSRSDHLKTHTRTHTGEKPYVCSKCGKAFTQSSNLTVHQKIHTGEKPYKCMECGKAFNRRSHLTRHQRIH
The target in data set [6] is T1, Zif268 zinc finger protein (three fingers) (UniProt P08046 SEQ:1-89). The experiment in a line: EMSA; Zn2+, Mg2+, pH 7.7, RT; no yeast growth; 1.2-fold repression (Table 8). Background: Mobility shift assays separate free from complexed probe on a gel.
The target of data set [7] is ZFP 12 QSSR1-QSNV2-RSNR (synthetic). The experiment in a line: cell_activity; HEK293 luciferase repression. The settings on record: tags: HA tag and NLS (P3 vector). The procedure:
as §1, §2, §3

The target of data set [8] is ZFP 10 RDHT-RSHR-QSHR2 (synthetic). The experiment in a line: cell_activity; HEK293 luciferase repression. The settings on record: tags: HA tag and NLS (P3 vector). The procedure: as §1, §2, §3
Sequence of ZFP 10 RDHT-RSHR-QSHR2 (synthetic) (chain, as listed by the source): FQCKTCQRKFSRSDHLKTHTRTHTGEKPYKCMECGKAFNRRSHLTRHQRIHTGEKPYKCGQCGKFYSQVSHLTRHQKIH
Data set [9] addresses ZFP 16 QSHR2-RDER1-RSHR (synthetic). The experiment in a line: cell_activity; HEK293 luciferase repression. The settings on record: tags: HA tag and NLS (P3 vector). As for the experimental part: as §1, §2, §3
Data set [10] concerns the target T1, Zif268 zinc finger protein (three …). The experiment in a line: EMSA; Zn2+, Mg2+, pH 7.7, RT; no yeast growth; 1.6-fold repression (Table 8).
The target in data set [11] is ZFP 23 RDHT-RSNR-QSNR3 (synthetic). The experiment in a line: cell_activity; HEK293 luciferase repression. The settings on record: tags: HA tag and NLS (P3 vector). The procedure:
as §1, §2, §3

Data set [12] deals with ZFP 3 RDHT-QSNV2-QSSR1 (synthetic). The experiment in a line: cell_activity; HEK293 luciferase repression. The note with it: tags: HA tag and NLS (P3 vector). As for the experimental part: as §1, §2, §3
Sequence of ZFP 3 RDHT-QSNV2-QSSR1 (synthetic) (chain, as listed by the source): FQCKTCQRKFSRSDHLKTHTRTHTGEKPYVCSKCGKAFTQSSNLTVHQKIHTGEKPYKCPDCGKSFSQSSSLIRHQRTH
In data set [13] the target is ZFP 4 RSHR-RDER1-RDER1 (synthetic). The experiment in a line: cell_activity; HEK293 luciferase repression. The settings on record: tags: HA tag and NLS (P3 vector). The procedure:
as §1, §2, §3

Data set [14] concerns the target T1, Zif268 zinc finger protein (three …). The experiment in a line: EMSA; 20 mM Tris pH 7.7, 120 mM NaCl, 5 mM MgCl2, 20 uM ZnSO4, RT; yeast growth +++; 28-fold repression in human cells (Table 8).
Data set [15] concerns the target ZFP 15 VSNV-CSNR1-RSNR (synthetic). The experiment in a line: cell_activity; HEK293 luciferase repression. The settings on record: tags: HA tag and NLS (P3 vector). As for the experimental part:
as §1, §2, §3

For data set [16], the target named is T1, Zif268 zinc finger protein (three …). The experiment in a line: EMSA; Zn2+, Mg2+, pH 7.7, RT; no yeast growth; 1.5-fold repression (Table 8).

Sequence of ZFP 29 QSNR3-RDHT-RSNR (synthetic) (chain, as listed by the source): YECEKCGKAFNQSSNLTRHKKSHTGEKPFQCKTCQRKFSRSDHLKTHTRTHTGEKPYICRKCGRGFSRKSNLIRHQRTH
Sequence of ZFP 23 RDHT-RSNR-QSNR3 (synthetic) (chain, as listed by the source): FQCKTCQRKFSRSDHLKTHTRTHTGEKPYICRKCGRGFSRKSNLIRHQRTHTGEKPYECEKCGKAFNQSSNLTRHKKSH
Sequence of ZFP 12 QSSR1-QSNV2-RSNR (synthetic) (chain, as listed by the source): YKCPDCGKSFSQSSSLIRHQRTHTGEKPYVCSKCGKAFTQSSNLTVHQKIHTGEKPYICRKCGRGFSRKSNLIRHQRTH
Sequence of ZFP 4 RSHR-RDER1-RDER1 (synthetic) (chain, as listed by the source): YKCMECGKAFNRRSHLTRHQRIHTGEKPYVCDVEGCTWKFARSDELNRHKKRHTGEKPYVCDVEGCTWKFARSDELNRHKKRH
Sequence of ZFP 28 VSSR-QSNR3-RDER1 (synthetic) (chain, as listed by the source): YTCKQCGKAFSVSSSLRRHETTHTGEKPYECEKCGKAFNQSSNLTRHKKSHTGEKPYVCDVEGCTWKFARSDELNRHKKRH
Sequence of ZFP 15 VSNV-CSNR1-RSNR (synthetic) (chain, as listed by the source): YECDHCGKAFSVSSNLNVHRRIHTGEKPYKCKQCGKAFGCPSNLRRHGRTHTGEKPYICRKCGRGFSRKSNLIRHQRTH
Sequence of ZFP 16 QSHR2-RDER1-RSHR (synthetic) (chain, as listed by the source): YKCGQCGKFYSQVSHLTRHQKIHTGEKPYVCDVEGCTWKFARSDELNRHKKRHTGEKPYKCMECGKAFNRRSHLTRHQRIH

B1: target 20 (dsDNA)
DNA 1: GAGGGAGAAG
DNA 2: CTTCTCCCTC
Molecule B1 returned an activity in [1] of 2.1 fold repression.

B2: target 22 (dsDNA)
DNA 1: GGGGTTGAG
DNA 2: CTCAACCCC
In turn, B2 had an activity in data set [2] of 2.1 fold repression.

B3: target 29 (dsDNA)
DNA 1: GAGTGGGAAA
DNA 2: TTTCCCACTC
B3 returned an activity in data set [3] of 2 fold repression.

B4: target 28 (dsDNA)
DNA 1: GCGGAAGTTC
DNA 2: GAACTTCCGC
As for B4, in data set [4], the activity came to 2 fold repression.

B5: target 7 (dsDNA)
DNA 1: GGGAAACGGG
DNA 2: CCCGTTTCCC
B5: the activity in [5] is 3.6 fold repression.

B6: GACT probe (dsDNA)
DNA 1: CCGGGTCGGGACTGGGCGGTACCG
DNA 2: TCGACGGTACCGCCCAGTCCCGAC
With B6, binding in data set [6] was put at a Kd of 4.9 nM.

B7: target 12 (dsDNA)
DNA 1: GAGCAAGTAG
DNA 2: CTACTTGCTC
Consider B7, for which the activity in [7] is 2.9 fold repression.

B8: target 10 (dsDNA)
DNA 1: GGAGGGTGG
DNA 2: CCACCCTCC
For the molecule B8, the activity in data set [8] came to 3.1 fold repression.

B9: target 16 (dsDNA)
DNA 1: GGGGCGGGAT
DNA 2: ATCCCGCCCC
On to B9, for which the activity in data set [9] came to 2.3 fold repression.

B10: GAGC probe (dsDNA)
DNA 1: CCGGGTCGCGAGCGGGCGGTACCG
DNA 2: TCGACGGTACCGCCCGCTCGCGAC
In the case of B10, binding in data set [10] was put at a Kd of 2.3 nM.

B11: target 23 (dsDNA)
DNA 1: GAAGAGAGGT
DNA 2: ACCTCTCTTC
As for B11, the activity in [11] turned out to be 2.1 fold repression.

B12: target 3 (dsDNA)
DNA 1: GCACAATGG
DNA 2: CCATTGTGC
The molecule B12 had an activity in data set [12] of 4 fold repression.

B13: target 4 (dsDNA)
DNA 1: GCGGCGGGGC
DNA 2: GCCCCGCCGC
Take B13: in data set [13], the activity stood at 3.8 fold repression.

B14: GCGT probe (dsDNA)
DNA 1: CCGGGTCGCGCGTGGGCGGTACCG
DNA 2: TCGACGGTACCGCCCACGCGCGAC
As to B14, the affinity in data set [14], expressed as Kd, was 0.024 nM.

B15: target 15 (dsDNA)
DNA 1: GAGGACAATG
DNA 2: CATTGTCCTC
Turning to B15, the activity in [15] was determined as 2.5 fold repression.

B16: GCTT probe (dsDNA)
DNA 1: CCGGGTCGTGCTTGGGCGGTACCG
DNA 2: TCGACGGTACCGCCCAAGCACGAC
In the case of B16, the equilibrium dissociation constant (Kd) (commonly the free concentration of one partner at which half of the binding sites on the other are occupied at equilibrium, for simple one-to-one binding) in data set [16] was 2.1 nM.
